Protein production data for ten sequences are collected here from a protein production outcome set (Wang et al. 2014).

The nature of this data set: label from the status in PepcDB records.
As to “MQIESFKSLLPKYKCIFFDAFGVLKTYNGLLPGIENTFDYLKAQGQDYYIVTNDASRSPEQLADSYHKLGLFSITADKIISSGMITKEYIDLKVDGGIVAYLGTANSANYLVSDGIKMLPVSAIDDSNIGEVNALVLLDDEGFNWFHDLNKTVNLLRKRTIPAIVANTDNTYPLTKTDVAIAIGGVATMIESILGRRFIRFGKPDSQMFMFAYDMLRQKMEISKREILMVGDTLHTDILGGNKFGLDTALVLTGNTRIDDAETKIKSTGIVPTHICESAVIEL”, the protein production entry is reported as “not failed”.

“MLSRLFLLFALVPFLELYLLVQVGTVIGAAPTILLVILTAVVGAWLARTQGLGVMARVQNDLARGIMPGQALIDGFCILLAGLLLLTPGFLTDVVGLLLLLPPFRALLASRLQRHFAVRYASSGTTAEGGHFIVYGSSGPAAHEEPRHAVVIDTQPIDSSSAATGLADDTKPLGDAQPSGDGRPRS”: the protein production result is reported as “failed”.

On to “KRVFGFVSAKGGDGGSCIAANFAFALSQEPDIHVLAVDISLPFGDLDMYLSGNTHSQDLADISNASDRLDKSLLDTMVQHISPSLDLIPSPATFEKIVNIEPERVSDLIHIAASFYDYIIVDFGASIDHVGVWVLEHLDELCIVTTPSLQSLRRAGQLLKLCKEFEKPISRIEIILNRADTNSRITSDEIEKVIGRPISKRIPQDEDAMQESLLSGQSVLKVAPKSQLSKTIVDWALHLNGV”, for which the protein production result is given as “not failed”.

Turning to “MNTRHFSQLPKPYLAYPKVIQGLVFKKPKGSKILPQVEYVVDSFQIDQQHLRDYNEVCGFQNDGFIPAIYLAVLSQSLQMHMMTTEAFPFPVLGLVHIRNQIKQIRKIAVNETLTLSCQFGELKPHDKGLQFDFITTAKVGNDIVMEGITTYLSRQKTEQVSAEKPKENKTPDYQVQQVWDVAENTGRRYAKTSGDYNLIHIHAITAKAFGFKQAIAHGMWSKAKALANIVLPDAYEADVWFKLPMYLPSKVEFLTAEQSKETDFLIRNAKSQKPHVSGVVKAL”, the protein production result is “failed”.

For “FSTFDSKYDRFLRGEEKLTDQEELGRVLISSTQFTNCNTCHEIRGAKGLEDGLFTNHKYFNIGVPANTSVRAVNGSKPDAVDLGLAQNPAVAGDPAQRGKFKVPTLRNVAVTGPYMHNGVFKDLRTVVLFYVKYKSKKPSRQINPETGKTWDAPEVPENIAMTELTSAPALDDKRVDAIVAFLKTLTDRRYEHLLPKEDGQTAAPT”, the protein production result is “failed”.

For “AIAQGENVDHAQPISTWSAEQELHLVVFTKPPIAGLTKQRLSREIGSTLATRISAALVENTLATAYDWLQGLDLQAGGTGAVHLYYTPVESEQAKAECVERWLDDSVRHRYPAFRIAPQKASKVQSTGDQKQDPLGSRLIQAFTEVTSLVDESRDAHVVVIGSDCPALDTAVLQQAFAALHAGHGAVIGPAQDGGYYLLGLAFAAAERTRWARVIYAAFGPHLVFSQNDVCARTVEALRNDGVRTICLPVTLNDVDTAQDLVHLPASMRPREWFSSANARLHKTSDLVETAPAPGSTTCDEEVDADKLDPSVQNVCSRQV”, the protein production result is reported as “not failed”.

In the case of “MDDLKTRVITASVVAPFVVLCFVSYESLIGLVSAILILAGYELITLEMKERDARFFYVILLALYPVLYGLVFEEPTQPLSILFITGVVFSLITDKDPSQVFKTVAAFSIALIYVTFFLSFFLPIYRDFGAANALLVLTSTWVFDSFAYFTGLKFGRTRISPRYSPRKSLEGVIGGFLGVVIYTFLYRLVVNDLLSVNVISFRTFLPFAATVAIMDTFGDIFESALKRHYGVKDSGKTLPGHGGMLDRIDGLLFVAPVSYIVFKILEGVVR”, the protein production entry is “failed”.

For “MTEVSFFLSDNNWYFVVVINNKDFCMKCHRLNEVMELLHPVWEENSDLNLVQLLQKLADEAGFKGQLSDLTDDILIYHLKMRGSAPTEVIPGLKKDYEEDFKTAILRARGVIKD”, the protein production result is “failed”.

In the case of “MILVATKPKDSRGSSSDEMMMNDLDEIIFGENSLGHSSSASGNDQKKQKSSKNNELIHL”, the protein production entry was “failed”.

“MSVVDPSLIERIIRDDVRAMGAYHVPDSHGLVKLDAMENPYRLPPALRSELAARLGEVALNRYPVPSSEALRAKLKEVMQVPAGMEVLLGNGSDEIISMLALAAARPGAKVMAPVPGFVMYAMSAQFAGLEFVGVPLRADFTLDRGAMLAAMAEHQPAIVYLAYPNNPTGNLFDAADMEAIVRAAQGSVCRSLVVVDEAYQPFAQESWMSRLTDFGNLLVMRTVSKLGLAGIRLGYVAGDPQWLEQLDKVRPPYNVNVLTEATALFALEHVAVLDEQAAQLRAERSRVAEGMAAHGGVTVFPSAANFLLARVPDAAQTFDRLLARKVLIKNVSKMHPLLANCLRVTVSTPEENAQFLEAFAASLQD”: the protein production result was “not failed”.
